B1: MCCA_HUMAN (protein, UniProt Q96RQ3 42-725, looked up)
Methylcrotonoyl-CoA …: TTATGRNITKVLIANRGEIACRVMRTAKKLGVQTVAVYSEADRNSMHVDMADEAYSIGPAPSQQSYLSMEKIIQVAKTSAAQAIHPGCGFLSENMEFAELCKQEGIIFIGPPPSAIRDMGIKSTSKSIMAAAGVPVVEGYHGEDQSDQCLKEHARRIGYPVMIKAVRGGGGKGMRIVRSEQEFQEQLESARREAKKSFNDDAMLIEKFVDTPRHVEVQVFGDHHGNAVYLFERDCSVQRRHQKIIEEAPAPGIKSEVRKKLGEAAVRAAKAVNYVGAGTVEFIMDSKHNFCFMEMNTRLQVEHPVTEMITGTDLVEWQLRIAAGEKIPLSQEEITLQGHAFEARIYAEDPSNNFMPVAGPLVHLSTPRADPSTRIETGVRQGDEVSVHYDPMIAKLVVWAADRQAALTKLRYSLRQYNIVGLHTNIDFLLNLSGHPEFEAGNVHTDFIPQHHKQLLLSRKAAAKESLCQAALGLILKEKAMTDTFTLQAHDQFSPFSSSSGRRLNISYTRNMTLKDGKNNVAIAVTYNHDGSYSMQIEDKTFQVLGNLYSEGDCTYLKCSVNGVASKAKLIILENTIYLFSKEGSIEIDIPVPKYLSSVSSQETQGGPLAPMTGTIEKVFVKAGDKVKAGDSLMVMIAMKMEHTIKSPKDGTVKKVFYREGAQANRHTPLVEFEEEESDKRESE
B2: NU160_HUMAN (protein, UniProt Q12769 1-1436, looked up)
Nuclear pore complex protein …: MLHLSAAPPAPPPEVTATARPCLCSVGRRGDGGKMAAAGALERSFVELSGAERERPRHFREFTVCSIGTANAVAGAVKYSESAGGFYYVESGKLFSVTRNRFIHWKTSGDTLELMEESLDINLLNNAIRLKFQNCSVLPGGVYVSETQNRVIILMLTNQTVHRLLLPHPSRMYRSELVVDSQMQSIFTDIGKVDFTDPCNYQLIPAVPGISPNSTASTAWLSSDGEALFALPCASGGIFVLKLPPYDIPGMVSVVELKQSSVMQRLLTGWMPTAIRGDQSPSDRPLSLAVHCVEHDAFIFALCQDHKLRMWSYKEQMCLMVADMLEYVPVKKDLRLTAGTGHKLRLAYSPTMGLYLGIYMHAPKRGQFCIFQLVSTESNRYSLDHISSLFTSQETLIDFALTSTDIWALWHDAENQTVVKYINFEHNVAGQWNPVFMQPLPEEEIVIRDDQDPREMYLQSLFTPGQFTNEALCKALQIFCRGTERNLDLSWSELKKEVTLAVENELQGSVTEYEFSQEEFRNLQQEFWCKFYACCLQYQEALSHPLALHLNPHTNMVCLLKKGYLSFLIPSSLVDHLYLLPYENLLTEDETTISDDVDIARDVICLIKCLRLIEESVTVDMSVIMEMSCYNLQSPEKAAEQILEDMITIDVENVMEDICSKLQEIRNPIHAIGLLIREMDYETEVEMEKGFNPAQPLNIRMNLTQLYGSNTAGYIVCRGVHKIASTRFLICRDLLILQQLLMRLGDAVIWGTGQLFQAQQDLLHRTAPLLLSYYLIKWGSECLATDVPLDTLESNLQHLSVLELTDSGALMANRFVSSPQTIVELFFQEVARKHIISHLFSQPKAPLSQTGLNWPEMITAITSYLLQLLWPSNPGCLFLECLMGNCQYVQLQDYIQLLHPWCQVNVGSCRFMLGRCYLVTGEGQKALECFCQAASEVGKEEFLDRLIRSEDGEIVSTPRLQYYDKVLRLLDVIGLPELVIQLATSAITEAGDDWKSQATLRTCIFKHHLDLGHNSQAYEALTQIPDSSRQLDCLRQLVVVLCERSQLQDLVEFPYVNLHNEVVGIIESRARAVDLMTHNYYELLYAFHIYRHNYRKAGTVMFEYGMRLGREVRTLRGLEKQGNCYLAALNCLRLIRPEYAWIVQPVSGAVYDRPGASPKRNHDGECTAAPTNRQIEILELEDLEKECSLARIRLTLAQHDPSAVAVAGSSSAEEMVTLLVQAGLFDTAISLCQTFKLPLTPVFEGLAFKCIKLQFGGEAAQAEAWAWLAANQLSSVITTKESSATDEAWRLLSTYLERYKVQNNLYHHCVINKLLSHGVPLPNWLINSYKKVDAAELLRLYLNYDLLEEAVDLVSEYVDAVLGKGHQYFGIEFPLSATAPMVWLPYSSIDQLLQALGENSANSHNIALSQKILDKLEDYQQKVDKATRDLLYRRTL
B3: DDX5_HUMAN (protein, UniProt P17844 1-614, looked up)
Probable ATP-dependent RNA …: MSGYSSDRDRGRDRGFGAPRFGGSRAGPLSGKKFGNPGEKLVKKKWNLDELPKFEKNFYQEHPDLARRTAQEVETYRRSKEITVRGHNCPKPVLNFYEANFPANVMDVIARQNFTEPTAIQAQGWPVALSGLDMVGVAQTGSGKTLSYLLPAIVHINHQPFLERGDGPICLVLAPTRELAQQVQQVAAEYCRACRLKSTCIYGGAPKGPQIRDLERGVEICIATPGRLIDFLECGKTNLRRTTYLVLDEADRMLDMGFEPQIRKIVDQIRPDRQTLMWSATWPKEVRQLAEDFLKDYIHINIGALELSANHNILQIVDVCHDVEKDEKLIRLMEEIMSEKENKTIVFVETKRRCDELTRKMRRDGWPAMGIHGDKSQQERDWVLNEFKHGKAPILIATDVASRGLDVEDVKFVINYDYPNSSEDYIHRIGRTARSTKTGTAYTFFTPNNIKQVSDLISVLREANQAINPKLLQLVEDRGSGRSRGRGGMKDDRRDRYSAGKRGGFNTFRDRENYDRGYSSLLKRDFGAKTQNGVYSAANYTNGSFGSNFVSAGIQTSFRTGNPTGTYQNGYDSTQQYGSNVPNMHNGMNQQAYAYPATAAAPMIGYPMPTGYSQ
B4: C1TM_HUMAN (protein, UniProt Q6UB35 32-978, looked up)
Monofunctional …: SSGGGGGGGGGREGLLGQRRPQDGQARSSCSPGGRTPAARDSIVREVIQNSKEVLSLLQEKNPAFKPVLAIIQAGDDNLMQEINQNLAEEAGLNITHICLPPDSSEAEIIDEILKINEDTRVHGLALQISENLFSNKVLNALKPEKDVDGVTDINLGKLVRGDAHECFVSPVAKAVIELLEKSGVNLDGKKILVVGAHGSLEAALQCLFQRKGSMTMSIQWKTRQLQSKLHEADIVVLGSPKPEEIPLTWIQPGTTVLNCSHDFLSGKVGCGSPRIHFGGLIEEDDVILLAAALRIQNMVSSGRRWLREQQHRRWRLHCLKLQPLSPVPSDIEISRGQTPKAVDVLAKEIGLLADEIEIYGKSKAKVRLSVLERLKDQADGKYVLVAGITPTPLGEGKSTVTIGLVQALTAHLNVNSFACLRQPSQGPTFGVKGGAAGGGYAQVIPMEEFNLHLTGDIHAITAANNLLAAAIDTRILHENTQTDKALYNRLVPLVNGVREFSEIQLARLKKLGINKTDPSTLTEEEVSKFARLDIDPSTITWQRVLDTNDRFLRKITIGQGNTEKGHYRQAQFDIAVASEIMAVLALTDSLADMKARLGRMVVASDKSGQPVTADDLGVTGALTVLMKDAIKPNLMQTLEGTPVFVHAGPFANIAHGNSSVLADKIALKLVGEEGFVVTEAGFGADIGMEKFFNIKCRASGLVPNVVVLVATVRALKMHGGGPSVTAGVPLKKEYTEENIQLVADGCCNLQKQIQITQLFGVPVVVALNVFKTDTRAEIDLVCELAKRAGAFDAVPCYHWSVGGKGSVDLARAVREAASKRSRFQFLYDVQVPIVDKIRTIAQAVYGAKDIELSPEAQAKIDRYTQQGFGNLPICMAKTHLSLSHQPDKKGVPRDFILPISDVRASIGAGFIYPLVGTMSTMPGLPTRPCFYDIDLDTETEQVKGLF
B5: C1TC_HUMAN (protein, UniProt P11586 1-935, looked up)
C-1-tetrahydrofolate …: MAPAEILNGKEISAQIRARLKNQVTQLKEQVPGFTPRLAILQVGNRDDSNLYINVKLKAAEEIGIKATHIKLPRTTTESEVMKYITSLNEDSTVHGFLVQLPLDSENSINTEEVINAIAPEKDVDGLTSINAGKLARGDLNDCFIPCTPKGCLELIKETGVPIAGRHAVVVGRSKIVGAPMHDLLLWNNATVTTCHSKTAHLDEEVNKGDILVVATGQPEMVKGEWIKPGAIVIDCGINYVPDDKKPNGRKVVGDVAYDEAKERASFITPVPGGVGPMTVAMLMQSTVESAKRFLEKFKPGKWMIQYNNLNLKTPVPSDIDISRSCKPKPIGKLAREIGLLSEEVELYGETKAKVLLSALERLKHRPDGKYVVVTGITPTPLGEGKSTTTIGLVQALGAHLYQNVFACVRQPSQGPTFGIKGGAAGGGYSQVIPMEEFNLHLTGDIHAITAANNLVAAAIDARIFHELTQTDKALFNRLVPSVNGVRRFSDIQIRRLKRLGIEKTDPTTLTDEEINRFARLDIDPETITWQRVLDTNDRFLRKITIGQAPTEKGHTRTAQFDISVASEIMAVLALTTSLEDMRERLGKMVVASSKKGEPVSAEDLGVSGALTVLMKDAIKPNLMQTLEGTPVFVHAGPFANIAHGNSSIIADRIALKLVGPEGFVVTEAGFGADIGMEKFFNIKCRYSGLCPHVVVLVATVRALKMHGGGPTVTAGLPLPKAYIQENLELVEKGFSNLKKQIENARMFGIPVVVAVNAFKTDTESELDLISRLSREHGAFDAVKCTHWAEGGKGALALAQAVQRAAQAPSSFQLLYDLKLPVEDKIRIIAQKIYGADDIELLPEAQHKAEVYTKQGFGNLPICMAKTHLSLSHNPEQKGVPTGFILPIRDIRASVGAGFLYPLVGTMSTMPGLPTRPCFYDIDLDPETEQVNGLF
B6: P5CS_HUMAN (protein, UniProt P54886 1-795, looked up)
Delta-1-pyrroline-5-carboxylat …: MLSQVYRCGFQPFNQHLLPWVKCTTVFRSHCIQPSVIRHVRSWSNIPFITVPLSRTHGKSFAHRSELKHAKRIVVKLGSAVVTRGDECGLALGRLASIVEQVSVLQNQGREMMLVTSGAVAFGKQRLRHEILLSQSVRQALHSGQNQLKEMAIPVLEARACAAAGQSGLMALYEAMFTQYSICAAQILVTNLDFHDEQKRRNLNGTLHELLRMNIVPIVNTNDAVVPPAEPNSDLQGVNVISVKDNDSLAARLAVEMKTDLLIVLSDVEGLFDSPPGSDDAKLIDIFYPGDQQSVTFGTKSRVGMGGMEAKVKAALWALQGGTSVVIANGTHPKVSGHVITDIVEGKKVGTFFSEVKPAGPTVEQQGEMARSGGRMLATLEPEQRAEIIHHLADLLTDQRDEILLANKKDLEEAEGRLAAPLLKRLSLSTSKLNSLAIGLRQIAASSQDSVGRVLRRTRIAKNLELEQVTVPIGVLLVIFESRPDCLPQVAALAIASGNGLLLKGGKEAAHSNRILHLLTQEALSIHGVKEAVQLVNTREEVEDLCRLDKMIDLIIPRGSSQLVRDIQKAAKGIPVMGHSEGICHMYVDSEASVDKVTRLVRDSKCEYPAACNALETLLIHRDLLRTPLFDQIIDMLRVEQVKIHAGPKFASYLTFSPSEVKSLRTEYGDLELCIEVVDNVQDAIDHIHKYGSSHTDVIVTEDENTAEFFLQHVDSACVFWNASTRFSDGYRFGLGAEVGISTSRIHARGPVGLEGLLTTKWLLRGKDHVVSDFSEHGSLKYLHENLPIPQRNTN
B7: HNRPM_HUMAN (protein, UniProt P52272 2-730, looked up)
Heterogeneous nuclear …: AAGVEAAAEVAATEIKMEEESGAPGVPSGNGAPGPKGEGERPAQNEKRKEKNIKRGGNRFEPYANPTKRYRAFITNIPFDVKWQSLKDLVKEKVGEVTYVELLMDAEGKSRGCAVVEFKMEESMKKAAEVLNKHSLSGRPLKVKEDPDGEHARRAMQKVMATTGGMGMGPGGPGMITIPPSILNNPNIPNEIIHALQAGRLGSTVFVANLDYKVGWKKLKEVFSMAGVVVRADILEDKDGKSRGIGTVTFEQSIEAVQAISMFNGQLLFDRPMHVKMDERALPKGDFFPPERPQQLPHGLGGIGMGLGPGGQPIDANHLNKGIGMGNIGPAGMGMEGIGFGINKMGGMEGPFGGGMENMGRFGSGMNMGRINEILSNALKRGEIIAKQGGGGGGGSVPGIERMGPGIDRLGGAGMERMGAGLGHGMDRVGSEIERMGLVMDRMGSVERMGSGIERMGPLGLDHMASSIERMGQTMERIGSGVERMGAGMGFGLERMAAPIDRVGQTIERMGSGVERMGPAIERMGLSMERMVPAGMGAGLERMGPVMDRMATGLERMGANNLERMGLERMGANSLERMGLERMGANSLERMGPAMGPALGAGIERMGLAMGGGGGASFDRAIEMERGNFGGSFAGSFGGAGGHAPGVARKACQIFVRNLPFDFTWKMLKDKFNECGHVLYADIKMENGKSKGCGVVKFESPEVAERACRMMNGMKLSGREIDVRIDRNA

Test system: KDM4A-I71AzF
Assay: CASI: photo-crosslinking with HEK293T cell extracts, StrepTactin enrichment and LC-MS/MS proteomics;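 note: lysates from HEK293T cells pretreated with a KDM4 inhibitor to raise proteome methylation, affinity-purified after ±UV, gel-resolved, trypsin-digested, with exclusive unique peptides per protein averaged per condition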
Type: binding, human
Settings: sheet "Final results but with 0.01"

Molecule	Fold change (+UV/-UV)
B1	0
B2	0.5
B3	1.6
B4	1.091
B5	0.9444
B6	2.143
B7	1
